Laboratory results from the supplement of paper PMC10201428.
± gives the standard deviation of the averaged measurements.

How the values were obtained:
[1] = tested on: VchCAST RNA-guided transposition machinery (E. coli BL21(DE3) host, lacZ target); test: relative integration efficiency (T-RL orientation) vs wild-type transposon end (log2 (normalized fold change)); transposon end mutated: left end; higher = more efficient transposition
In short: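 In E. coli BL21(DE3), a T7-driven effector plasmid was paired with a pUC57 mini-transposon donor containing 1549 left-end or 1849 right-end barcoded transposon variants. Cells grew on plates with 0.1 mM IPTG at 37°C for 18 h. Relative integration efficiency was derived from Illumina reads of genomic integration junctions against input plasmids, as a log-transformed output/input barcode fold change normalised to reference barcodes.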

[2] = tested on: VchCAST RNA-guided transposition machinery (E. coli BL21(DE3) host, lacZ target); test: relative integration efficiency (T-LR orientation) vs wild-type transposon end (log2 (normalized fold change)); transposon end mutated: left end; higher = more efficient transposition
Method: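 Pooled, barcoded VchCAST (Tn6677) mini-transposon donor libraries; each variable transposon-end sequence sits in a fixed pDonor mini-transposon context (10-bp barcode and cargo not included). Left- or right-end libraries were co-transformed with pEffector (TniQ-Cascade, TnsABC, lacZ crRNA, T7, 0.1 mM IPTG) into E. coli BL21(DE3) and grown 18 h at 37 C. T-LR and T-RL junction amplicons were sequenced; output/input barcode fold change was normalised to the mean of four wild-type barcodes and log2-transformed. Two biological replicates; zero-count/undetected variants carry floor values (-10 / -15), censored here. Barcode uncoupling by PCR recombination adds noise.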

Sequence | relative integration efficiency (log2) [1] | relative integration efficiency (log2) [2]
AATGTTGTTGATGCAACCATAAAGTGATATTTAATAACTTCGTATAAGGTATACTATACGAAGTTATCAACCATATATTGATATCTCACAAAACAACCATAAGTTGATATTTTTGTGAATCGAGTATTTCAGCAAAACTACTGCAGTAAGAA | -3.34 ± 1.1 | -3.52 ± 1.1
AATGTTGTTGATGCAACCATAAAGTGATATTTAATAACTTCGTATAATGTATACTATACGAAGTTATCAACCATATATTGATATCTCACAAAACAACCATAAGTTGATATTTTTGTGAATCGAGTATTTCAGCAAAACTACTGCAGTAAGAA | -3.05 ± 1.2 | -2.57 ± 2.1
AATGTTGTTGATGCAACCATAAAGTGATATTTAATAACTTCGTATAATGTATCGTATACGAACGGTACAACCATATATTGATATCTCACAAAACAACCATAAGTTGATATTTTTGTGAATCGAGTATTTCAGCAAAACTACTGCAGTAAGAA | -3.32 ± 0.82 | -4.18 ± 0.64
AATGTTGTTGATGCAACCATAAAGTGATATTTAATAACTTCGTATAATGTATGCTATACGAAGTTATCAACCATATATTGATATCTCACAAAACAACCATAAGTTGATATTTTTGTGAATCGAGTATTTCAGCAAAACTACTGCAGTAAGAA | -2.95 ± 1.1 | -3.76 ± 2.9
AATGTTGTTGATGCAACCATAAAGTGATATTTAATAACTTCGTATAGGATACTTTATACGAAGTTATCAACCATATATTGATATCTCACAAAACAACCATAAGTTGATATTTTTGTGAATCGAGTATTTCAGCAAAACTACTGCAGTAAGAA | -3.72 ± 1.3 | -3.99 ± 1.5
AATGTTGTTGATGCAACCATAAAGTGATATTTAATAACTTCGTATAGTATACATTATACGAAGTTATCAACCATATATTGATATCTCACAAAACAACCATAAGTTGATATTTTTGTGAATCGAGTATTTCAGCAAAACTACTGCAGTAAGAA | -2.92 ± 1 | -4.118 ± 0.013
AATGTTGTTGATGCAACCATAAAGTGATATTTAATAACTTGGTATAGCATACATTATACGAACGGTACAACCATATATTGATATCTCACAAAACAACCATAAGTTGATATTTTTGTGAATCGAGTATTTCAGCAAAACTACTGCAGTAAGAA | -3.71 ± 1.4 | -4.2 ± 0.86
AATGTTGTTGATGCAACCATAAAGTGATATTTAATAAGGCGGGCGCCGACTACCAGGCCAACACCCCACCAACGCGCGGTCGCGAGACACCCCACCAACGCCTGGTCGCGGGGGTGTCCGATCTGATTTCAGCAAAACTACTGCAGTAAGAA | -7.05 ± 1.6 | -3.73 ± 1.5
AATGTTGTTGATGCAACCATAAAGTGATATTTAATAATCAACCATAAAGTGATATTTAACTTAACCACAACCATATATTGATATCTCACAAAACAACCATAAGTTGATATTTTTGTGAATCGAGTATTTCAGCAAAACTACTGCAGTAAGAA | -2.68 ± 0.72 | -4.25 ± 0.83
AATGTTGTTGATGCAACCATAAAGTGATATTTAATAATCAACCATATATTGATATCTCACAAAACAACCATAAGTTGATATTTTTGTGAATCGAGTATTTCAGCAAAACTACTGCAGTAAGAAAGTTACTTCGTGGTATGGGAGGATCAAGG | -7.79 ± 2.1 | < -10
AATGTTGTTGATGCAACCATAAAGTGATATTTAATAATCAACCATATATTGATATCTCTATTTATAATCAGCAACTTAACCACAAAAACAAAACAACCATAAGTTGATATTTTTGTGAATCGAGTATTTCAGCAAAACTACTGCAGTAAGAA | -2.9 ± 1.1 | -0.761 ± 1
AATGTTGTTGATGCAACCATAAAGTGATATTTAATAATCAACTGTATATAAATACAGTTCCACAAAACAACCATATATTGATATCTCACAAAACAACCATAAGTTGATATTTTTGTGAATCGAGTATTTCAGCAAAACTACTGCAGTAAGAA | -4.85 ± 1.1 | -5.77 ± 0.6
AATGTTGTTGATGCAACCATAAAGTGATATTTAATAATGCGGGCGCCGACTACCAGGCCAACACCCCACCAACGCGCGGTCGCGAGACACCCCACCAACGCCTGGTCGCGGGGGTGTCCGATCTGATTTCAGCAAAACTACTGCAGTAAGAA | -7.04 ± 1.2 | -5.9 ± 3.3
AATGTTGTTGATGCAACCATAAAGTGATATTTAATAATGGAATTGTGAGCGGATAACAATTACAAAACAACCATATATTGATATCTCACAAAACAACCATAAGTTGATATTTTTGTGAATCGAGTATTTCAGCAAAACTACTGCAGTAAGAA | -4.89 ± 0.52 | -3.41 ± 0.6
AATGTTGTTGATGCAACCATAAAGTGATATTTAATAATTACAACCATATATTGATATCTCTTTATAATCAGCAACTTAACCACAAAAACAAAACAACCATAAGTTGATATTTTTGTGAATCGAGTATTTCAGCAAAACTACTGCAGTAAGAA | -4.31 ± 0.99 | -2.04 ± 1.6
AATGTTGTTGATGCAACCATAAAGTGATATTTAATAATTAGGGCGCCGACTACCAGGCCAACACCCCACCAACGCGCGGTCGCGAGACACCCCACCAACGCCTGGTCGCGGGGGTGTCCGATCTGATTTCAGCAAAACTACTGCAGTAAGAA | -7.07 ± 0.66 | -4.57 ± 0.92
AATGTTGTTGATGCAACCATAAAGTGATATTTAATAATTATCAACCATAAAGTGATATTTAACTTAACAACCATATATTGATATCTCACAAAACAACCATAAGTTGATATTTTTGTGAATCGAGTATTTCAGCAAAACTACTGCAGTAAGAA | -3.5 ± 0.95 | -4.24 ± 1.2
AATGTTGTTGATGCAACCATAAAGTGATATTTAATAATTATCAACCATATATTGATATCTCTTATAATCAGCAACTTAACCACAAAAACAAAACAACCATAAGTTGATATTTTTGTGAATCGAGTATTTCAGCAAAACTACTGCAGTAAGAA | -4.57 ± 1.7 | -2.13 ± 1.5
AATGTTGTTGATGCAACCATAAAGTGATATTTAATAATTATTCAACCATATATTGATATCTCACAAAACAACCATAAGTTGATATTTTTATAATCAGCAACTTAACCACAAAATGTGAATCGAGTATTTCAGCAAAACTACTGCAGTAAGAA | -6.852 ± 0.014 | < -10
AATGTTGTTGATGCAACCATAAAGTGATATTTAATAATTATTCAACCATATATTGATATCTCTATAATCAGCAACTTAACCACAAAAACAAAACAACCATAAGTTGATATTTTTGTGAATCGAGTATTTCAGCAAAACTACTGCAGTAAGAA | -5.19 ± 1.2 | -3.42 ± 0.56
AATGTTGTTGATGCAACCATAAAGTGATATTTAATAATTATTGCGCCGACTACCAGGCCAACACCCCACCAACGCGCGGTCGCGAGACACCCCACCAACGCCTGGTCGCGGGGGTGTCCGATCTGATTTCAGCAAAACTACTGCAGTAAGAA | -6.73 ± 0.58 | -5.68 ± 3.3
AATGTTGTTGATGCAACCATAAAGTGATATTTAATAATTATTTACAACCATATATTGATATCTCACAAAACAACCATAAGTTGATATTTTTGTGAATCGAGTATTTCAGCAAAACTACTGCAGTAAGAAAGTTACTTCGTGGTATGGGAGGA | -5.81 ± 1.1 | -1.76 ± 1
AATGTTGTTGATGCAACCATAAAGTGATATTTAATAATTATTTACAACCATATATTGATATCTCTAATCAGCAACTTAACCACAAAAACAAAACAACCATAAGTTGATATTTTTGTGAATCGAGTATTTCAGCAAAACTACTGCAGTAAGAA | -4.75 ± 1.3 | -2.24 ± 2.1
AATGTTGTTGATGCAACCATAAAGTGATATTTAATAATTATTTATAACAACCATATATTGATATCTCTCAGCAACTTAACCACAAAAACAAAACAACCATAAGTTGATATTTTTGTGAATCGAGTATTTCAGCAAAACTACTGCAGTAAGAA | -4.46 ± 0.052 | -2.66 ± 1.4
